These are literature values, as cited in US20240100071A1, “COMBINATION THERAPY FOR PATIENTS HAVING ACUTE AND/OR PERSISTENT DYSPNEA” (S-Form Pharma, priority 2020, published 2024).

Where two headings read alike, the source gives them in different places.

For the data set the following is noted: human plasma 24° C., cited from earlier work; for Average ADM recovery (N = 5): 10 ng ADM/ml; for Average loss of immune reactivity: MR-ADM/CT-ADM sandwich immune assay.

Human Adrenomedullin [hADM]: the “Average loss of immune reactivity” value was “Average: 0.9%/h”. Under “0 h”, the “Average ADM recovery (N = 5)” value is given as 100. Moreover, where the note is “2 h”, the “Average ADM recovery (N = 5)” value is on record as 99.2 and the “Loss of immune reactivity %/h” value was 0.4 %/h. Besides, under “4 h”, the “Average ADM recovery (N = 5)” value is on record as 96.4 and the “Loss of immune reactivity %/h” value is recorded as 0.8 %/h. For the same substance, where the note is “8 h”, the “Average ADM recovery (N = 5)” value was 88.2 and the “Loss of immune reactivity %/h” value is 1.5 %/h. For the setting “listed as ADM”, the “Average loss of immune reactivity” value is 0.9 %/h.
